Holding throughout (test): ELISA
In general terms: ELISA stands for enzyme-linked immunosorbent assay.

Assay [1] addresses T1, human EphA2 extracellular region-SEAP-His protein (human, UniProt P29317 24-537).
T1 construct: extracellular domain; also called hEphA2-SEAP-His

The target in assay [2] is T2, human EphB2 extracellular region-SEAP-His protein (human, UniProt P29323 19-543).
T2 construct: extracellular domain; also called hEphB2-SEAP-His
T2 sequence (looked up): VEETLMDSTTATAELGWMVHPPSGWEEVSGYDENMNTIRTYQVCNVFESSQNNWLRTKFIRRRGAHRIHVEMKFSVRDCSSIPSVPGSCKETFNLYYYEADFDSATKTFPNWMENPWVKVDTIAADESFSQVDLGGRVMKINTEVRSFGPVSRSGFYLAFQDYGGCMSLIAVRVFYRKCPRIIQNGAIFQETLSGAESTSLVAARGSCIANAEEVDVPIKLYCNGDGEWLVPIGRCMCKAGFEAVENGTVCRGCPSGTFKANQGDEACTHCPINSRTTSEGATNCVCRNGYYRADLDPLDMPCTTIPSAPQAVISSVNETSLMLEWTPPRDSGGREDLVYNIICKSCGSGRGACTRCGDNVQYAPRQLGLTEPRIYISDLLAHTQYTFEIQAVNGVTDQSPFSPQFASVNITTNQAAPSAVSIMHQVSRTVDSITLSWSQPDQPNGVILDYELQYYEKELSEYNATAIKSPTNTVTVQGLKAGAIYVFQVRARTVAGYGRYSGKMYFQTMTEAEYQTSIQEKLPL

In assay [3] the target is T3, human EphA10 extracellular region-SEAP-His protein (human, UniProt Q5JZY3 34-565).
T3 construct: extracellular domain; also called hEphA10-SEAP-His
T3 sequence (looked up): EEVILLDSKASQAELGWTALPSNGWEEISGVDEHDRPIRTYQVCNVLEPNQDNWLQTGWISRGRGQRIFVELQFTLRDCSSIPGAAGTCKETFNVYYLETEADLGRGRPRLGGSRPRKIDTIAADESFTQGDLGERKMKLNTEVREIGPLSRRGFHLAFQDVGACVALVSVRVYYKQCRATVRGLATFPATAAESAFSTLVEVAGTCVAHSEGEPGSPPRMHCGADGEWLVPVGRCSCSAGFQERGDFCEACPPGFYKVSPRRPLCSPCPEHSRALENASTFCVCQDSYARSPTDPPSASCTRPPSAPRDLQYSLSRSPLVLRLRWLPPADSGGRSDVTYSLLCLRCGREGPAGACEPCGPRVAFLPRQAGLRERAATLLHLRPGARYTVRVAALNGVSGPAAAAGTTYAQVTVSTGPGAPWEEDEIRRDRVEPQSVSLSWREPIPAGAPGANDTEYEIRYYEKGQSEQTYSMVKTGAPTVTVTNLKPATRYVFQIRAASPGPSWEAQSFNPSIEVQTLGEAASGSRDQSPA

The target of assay [4] is T4, human EphB6 extracellular region-SEAP-His protein (human, UniProt O15197 32-594).
T4 construct: extracellular domain; also called hEphB6-SEAP-His
T4 sequence (looked up): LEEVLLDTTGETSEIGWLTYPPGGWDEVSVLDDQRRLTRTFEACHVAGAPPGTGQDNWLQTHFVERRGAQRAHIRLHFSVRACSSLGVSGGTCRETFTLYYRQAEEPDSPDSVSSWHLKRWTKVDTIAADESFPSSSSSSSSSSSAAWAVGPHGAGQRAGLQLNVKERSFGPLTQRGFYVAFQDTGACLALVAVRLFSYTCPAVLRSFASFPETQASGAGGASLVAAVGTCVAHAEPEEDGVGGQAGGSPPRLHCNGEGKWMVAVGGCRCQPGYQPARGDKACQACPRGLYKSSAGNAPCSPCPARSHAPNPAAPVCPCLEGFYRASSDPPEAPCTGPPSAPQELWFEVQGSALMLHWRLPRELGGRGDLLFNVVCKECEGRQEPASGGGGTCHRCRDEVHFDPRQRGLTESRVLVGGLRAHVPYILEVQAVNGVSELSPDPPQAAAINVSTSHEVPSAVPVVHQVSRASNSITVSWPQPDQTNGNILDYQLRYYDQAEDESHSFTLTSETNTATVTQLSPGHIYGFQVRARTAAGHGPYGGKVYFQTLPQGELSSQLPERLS

In a further assay the target is SEAP-His (UniProt P05187 23-511).
Sequence of SEAP-His (P05187 23-511): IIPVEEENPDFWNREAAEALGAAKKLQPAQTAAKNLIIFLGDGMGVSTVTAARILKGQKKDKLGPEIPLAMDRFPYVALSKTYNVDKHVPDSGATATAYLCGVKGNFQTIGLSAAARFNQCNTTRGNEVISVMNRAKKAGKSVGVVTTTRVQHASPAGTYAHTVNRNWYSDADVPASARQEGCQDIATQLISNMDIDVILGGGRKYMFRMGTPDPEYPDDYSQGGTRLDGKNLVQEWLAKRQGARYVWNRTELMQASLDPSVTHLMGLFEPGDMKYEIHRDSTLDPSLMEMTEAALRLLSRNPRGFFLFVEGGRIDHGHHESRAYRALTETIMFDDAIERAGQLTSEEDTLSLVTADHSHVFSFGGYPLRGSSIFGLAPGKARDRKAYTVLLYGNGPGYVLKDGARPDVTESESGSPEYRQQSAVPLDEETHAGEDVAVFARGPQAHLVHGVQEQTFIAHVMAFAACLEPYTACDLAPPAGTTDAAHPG
Assay [5] deals with T5, human EphA6 extracellular region-SEAP-His protein (human, UniProt Q9UF33 23-550).
T5 construct: extracellular domain; also called hEphA6-SEAP-His
T5 sequence (looked up): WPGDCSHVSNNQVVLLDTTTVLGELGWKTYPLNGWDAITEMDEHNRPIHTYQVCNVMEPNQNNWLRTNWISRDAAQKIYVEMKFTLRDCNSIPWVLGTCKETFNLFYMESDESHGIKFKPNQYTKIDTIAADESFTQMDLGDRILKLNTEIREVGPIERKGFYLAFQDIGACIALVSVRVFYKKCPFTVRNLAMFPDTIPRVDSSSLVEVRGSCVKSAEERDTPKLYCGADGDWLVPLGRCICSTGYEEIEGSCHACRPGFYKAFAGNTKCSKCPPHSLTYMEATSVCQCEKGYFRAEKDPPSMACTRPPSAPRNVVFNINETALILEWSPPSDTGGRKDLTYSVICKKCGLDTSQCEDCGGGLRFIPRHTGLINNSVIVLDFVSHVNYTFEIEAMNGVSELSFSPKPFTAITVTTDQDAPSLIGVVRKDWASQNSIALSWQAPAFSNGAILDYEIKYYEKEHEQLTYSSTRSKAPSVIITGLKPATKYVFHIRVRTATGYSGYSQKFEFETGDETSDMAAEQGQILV

Residue numbers refer to the chain shown, from its start. Names may count otherwise.

T1 sequence (P29317 24-537): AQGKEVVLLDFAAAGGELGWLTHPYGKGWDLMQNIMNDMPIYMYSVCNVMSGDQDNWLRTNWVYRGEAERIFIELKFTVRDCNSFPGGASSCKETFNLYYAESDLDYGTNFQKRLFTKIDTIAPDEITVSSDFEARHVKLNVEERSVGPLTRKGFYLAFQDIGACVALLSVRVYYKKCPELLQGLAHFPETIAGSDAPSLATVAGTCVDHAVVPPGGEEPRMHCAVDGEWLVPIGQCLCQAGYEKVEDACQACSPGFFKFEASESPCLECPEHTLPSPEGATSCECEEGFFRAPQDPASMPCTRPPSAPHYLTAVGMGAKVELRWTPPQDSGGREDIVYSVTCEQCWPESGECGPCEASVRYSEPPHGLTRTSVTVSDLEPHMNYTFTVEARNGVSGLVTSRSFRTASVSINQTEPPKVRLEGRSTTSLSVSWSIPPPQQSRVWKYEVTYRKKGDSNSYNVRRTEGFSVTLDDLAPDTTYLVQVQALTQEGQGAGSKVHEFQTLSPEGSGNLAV

B1: humanized antibody No. 76 (antibody, human IgG1, kappa)
heavy: QVQLVQSGSELKKPGASVKVSCKASGYTFTDYSMHWVRQAPGQGLKWMGWINTETGEPTYAQGFTGRFVFSLDTSVSTAYLQISSLKAEDTAVYYCARIPLYYYGSRYWYFDVWGQGTTVTVSSASTKGPSVFPLAPSSKSTSGGTAALGCLVKDYFPEPVTVSWNSGALTSGVHTFPAVLQSSGLYSLSSVVTVPSSSLGTQTYICNVNHKPSNTKVDKRVEPKSCDKTHTCPPCPAPPAAAPSVFLFPPKPKDTLMISRTPEVTCVVVDVSHEDPEVQFNWYVDGVEVHNAKTKPREEQFNSTFRVVSVLTVVHQDWLNGKEYKCKVSNKGLPAPIEKTISKTKGQPREPQVYTLPPSREEMTKNQVSLTCLVKGFYPSDIAVEWESNGQPENNYKTTPPMLDSDGSFFLYSKLTVDKSRWQQGNVFSCSVMHEALHNHYTQKSLSLSPG
light: DIQMTQSPSSLSASVGDRVTITCRASENIYRNLAWYQQKPGKAPKLLVYAATNLADGVPSRFSGSGSGTDYTLTISSLQPEDFATYYCQHFWGTPWTFGQGTKVEIKRTVAAPSVFIFPPSDEQLKSGTASVVCLLNNFYPREAKVQWKVDNALQSGNSQESVTEQDSKDSTYSLSSTLTLSKADYEKHKVYACEVTHQGLSSPVTKSFNRGEC
notes: human Ig kappa; also called L1-4/HA2
For B1, the “A450 as % of hEphA4-SEAP-His” value stood at 4.8% in assay [1]; 4.9% in assay [2]; 4.7% in assay [3]; 5.2% in assay [4]; 5.5% in the assay with SEAP-His; 7.9% in assay [5].

B2: humanized antibody No. 83 (antibody, human IgG1, kappa)
heavy: B1 heavy with V2I
light: B1 light with V48L, P80S
notes: human Ig kappa; also called L1-5/HA4
Take B2: the “A450 as % of hEphA4-SEAP-His” value in assay [1] amounted to 5.8%; in assay [2] it was 5.6%; in assay [3], 5.6%; in assay [4], 5.8%; with SEAP-His it was 6.5%; in assay [5], 7.5%.

B3: humanized antibody No. 77 (antibody, human IgG1, kappa)
heavy: B1 heavy with K46E, Q62D, G63D, T65K
light: B1 light
notes: human Ig kappa; also called L1-4/HK1
As to B3, the “A450 as % of hEphA4-SEAP-His” value came to 4.5% in assay [1]; 4.5% in assay [2]; 4.5% in assay [3]; 4.5% in assay [4]; 4.7% in the assay with SEAP-His; 6% in assay [5].

B4: humanized antibody No. 81 (antibody, human IgG1, kappa)
heavy: B1 heavy with K46E
light: B1 light with V48L, P80S
notes: human Ig kappa; also called L1-5/HA1
Take B4: the “A450 as % of hEphA4-SEAP-His” value in assay [1] came out at 4.8%; in assay [2], 5%; in assay [3], 4.8%; in assay [4] it was 5%; in the assay with SEAP-His it was 5%; in assay [5], 8.8%.

B5: humanized antibody No. 82 (antibody, human IgG1, kappa)
heavy: B1 heavy
light: B1 light with V48L, P80S
notes: human Ig kappa; also called L1-5/HA2
As for B5, the “A450 as % of hEphA4-SEAP-His” value in assay [1] was 5.4%; in assay [2] it was 5.6%; in assay [3], 5.4%; in assay [4] it was 5.5%; with SEAP-His, 5.9%; in assay [5] it was 8.7%.

B6: humanized antibody No. 75 (antibody, human IgG1, kappa)
heavy: B1 heavy with K46E
light: B1 light
notes: constant region: human IgG1 CH1 and hinge, human IgG2 CH2 and CH3 with V234A, G237A, no C-terminal Lys; human Ig kappa; also called L1-4/HA1
Regarding B6, the “A450 as % of hEphA4-SEAP-His” value in assay [1] was 4.6%; in assay [2], 4.5%; in assay [3], 4.4%; in assay [4], 4.7%; with SEAP-His, 4.4%; in assay [5] it was 8.3%.

B7: humanized antibody No. 67 (antibody, human IgG1, kappa)
heavy: B1 heavy with V2I
light: B1 light
notes: human Ig kappa; also called L1-4/HA4
Turning to B7, the “A450 as % of hEphA4-SEAP-His” value in assay [1] was determined as 4.6%; in assay [2], 4.7%; in assay [3] it was 4.6%; in assay [4], 4.7%; with SEAP-His, 5%; in assay [5], 7.3%.

B8: humanized antibody No. 69 (antibody, human IgG1, kappa)
heavy: B1 heavy with V2I, Q62D, G63D, T65K
light: B1 light
notes: human Ig kappa; also called L1-4/HK4
In the case of B8, the “A450 as % of hEphA4-SEAP-His” value in assay [1] worked out at 5.5%; in assay [2], 5.5%; in assay [3], 5.4%; in assay [4] it was 5.6%; with SEAP-His it was 6.1%; in assay [5] it was 9.5%.

B9: humanized antibody No. 85 (antibody, human IgG1, kappa)
heavy: B1 heavy with Q62D, G63D, T65K
light: B1 light with V48L, P80S
notes: human Ig kappa; also called L1-5/HK2
Consider B9, for which the “A450 as % of hEphA4-SEAP-His” value in assay [1] worked out at 5.1%; in assay [2] it was 5.1%; in assay [3] it was 5%; in assay [4] it was 5.2%; with SEAP-His, 5.3%; in assay [5], 6.2%.

B10: humanized antibody No. 78 (antibody, human IgG1, kappa)
heavy: B1 heavy with Q62D, G63D, T65K
light: B1 light
notes: human Ig kappa; also called L1-4/HK2
In the case of B10, the “A450 as % of hEphA4-SEAP-His” value in assay [1] came out at 4.9%; in assay [2] it was 5.1%; in assay [3] it was 5.2%; in assay [4], 5.2%; in the assay with SEAP-His, 5.3%; in assay [5], 10%.

B11: humanized antibody No. 84 (antibody, human IgG1, kappa)
heavy: B1 heavy with K46E, Q62D, G63D, T65K
light: B1 light with V48L, P80S
notes: human Ig kappa; also called L1-5/HK1
As for B11, the “A450 as % of hEphA4-SEAP-His” value in assay [1] worked out at 4.9%; in assay [2], 4.9%; in assay [3] it was 5.1%; in assay [4], 4.9%; with SEAP-His it was 5.1%; in assay [5], 6%.
